Data from patent US20250152705A1, “COMBINATION THERAPY COMPRISING AN ANTI-IL-23 ANTIBODY AND A CORTICOSTEROID FOR TREATING PSORIASIS” (priority 2022, published 2025).

Tests used:
[1] = test system: moderate to severe plaque psoriasis; experiment: Prospective, open-label study of effectiveness of tildrakizumab plus topical halcinonide ointment; type: in vivo, human; conditions: for improvement of mean DLQI from baseline: patients with BSA≤3% at week 16, no halcinonide ointment
[2] = test system: patients with moderate to severe plaque psoriasis; experiment: Safety outcomes (AEs, SAEs) in the open-label study; type: in vivo, human; conditions: through week 24
Description: This was a single center, prospective, open-label study to evaluate the effectiveness and safety of tildrakizumab (ILUMYA® [tildrakizumab-asmn] in combination with halcinonide ointment (HALOG® ointment [Halcinonide Ointment, USP, 0.1%) for treating moderate to severe plaque psoriasis. The study protocol was approved by an institutional review board and the study was conducted in accordance with ethical guidelines. Written informed consent was obtained by all patients before initiating treatment.
All enrolled patients received tildrakizumab (100 mg) by subcutaneous injection at weeks 0, 4, and 16. Patients with BSA>3% at week 16 applied halcinonide ointment twice daily for 4 weeks and then continued without halcinonide for an additional 4 weeks of follow up. Patients with BSA≤3% at week 16 were also followed up to week 24. All patients were evaluated for safety and efficacy at weeks 4, 8, 16, 20 and 24.
The primary endpoint of the study was the proportion of patients with BSA≤3% at week 16. […] Improvements in PGA, the composite PGA×BSA measure, and DLQI were also evaluated as secondary endpoints. […]
A cohort of approximately 25 participants was planned for enrollment in the study. […] AEs and SAEs were summarized descriptively by frequency and severity, and their causal relationship to treatment was assessed.

[3] = patients with BSA>3% at week 16, week 16
[4] = patients with BSA≤3% at week 16, no halcinonide, week 16

B1: tildrakizumab (antibody, chains of the INN, looked up, V domains shown)
VH: QVQLVQSGAEVKKPGASVKVSCKASGYIFITYWMTWVRQAPGQGLEWMGQIFPASGSADYNEKFEGRVTMTTDTSTSTAYMELRSLRSDDTAVYYCARGGGGFAYWGQGTLVTVSS
VL: DIQMTQSPSSLSASVGDRVTITCRTSENIYSYLAWYQQKPGKAPKLLIYNAKTLAEGVPSRFSGSGSGTDFTLTISSLQPEDFATYYCQHHYGIPFTFGQGTKVEIK
decrease of mean DLQI from baseline ([1]; all patients, week 16): 68%
proportion of patients achieving PASI 75 ([1]; all patients, week 16): 60.9%
proportion of patients achieving PASI 90 ([1]; all patients, week 16): 17.4%
proportion of patients achieving PASI 100 (complete resolution) ([1]; all patients, week 16): 4.3%
proportion of patients with BSA≤1% ([1]; all patients, week 16): 21.7%
reduction in mean BSA involvement from baseline ([1]; all patients, week 16): 74%
proportion of patients reporting a DLQI score of 0 or 1 ([1]; all patients, week 16 (baseline 4.0%)): 39.2%
mean BSA involvement ([1]; all patients, week 16 (baseline 19.1%)): 5.0%
proportion of patients with BSA≤3% ([1]; all patients, week 16, tildrakizumab 100 mg sc at weeks 0, 4, 16): 52.2%
BSA≤3% response at weeks 20 and 24 ([1]; most patients with BSA≤3% at week 16 (no halcinonide use) who completed the study): maintained a BSA≤3%
reduction from baseline in mean BSA [1, 3]: 55%
reduction from baseline in mean PGA [1, 3]: 29%
reduction from baseline in mean PGA×BSA [1, 3]: 64%
reduction in mean DLQI from baseline [1, 3]: 50%
improvement of mean DLQI from baseline ([1]; week 16): 84%
improvement of mean DLQI from baseline ([1]; weeks 20 and 24): remained at similar levels
BSA, PGA and PGA×BSA responses ([1]; patients with BSA≤3% at week 16, no halcinonide, through week 24): maintained
reduction of mean BSA from baseline [1, 4]: 89%
reduction of mean PGA from baseline [1, 4]: 60%
reduction of mean PGA×BSA from baseline [1, 4]: 95%
number of patients with BSA>3% ([1]; week 16): 11 patients
number of patients with BSA≤3% ([1]; week 16): 12 patients
serious adverse events (SAEs) [2]: no SAEs
tolerability [2]: well tolerated
